Source: publication PMC11986948, “The carboxylesterase AtCXE12 converts volatile (Z)-3-hexenyl acetate to (Z)-3-hexenol in Arabidopsis leaves” (Plant Physiology, 2025)

B1: AtCXE12 (Arabidopsis thaliana) (protein)
chain: MDSEIAVDCSPLLKIYKSGRIERLMGEATVPPSSEPQNGVVSKDVVYSADNNLSVRIYLPEKAAAETDSKLPLLVYFHGGGFIIETAFSPTYHTFLTTSVSASNCVAVSVDYRRAPEHPISVPFDDSWTALKWVFTHITGSGQEDWLNKHADFSRVFLSGDSAGANIVHHMAMRAAKEKLSPGLNDTGISGIILLHPYFWSKTPIDEKDTKDETLRMKIEAFWMMASPNSKDGTDDPLLNVVQSESVDLSGLGCGKVLVMVAEKDALVRQGWGYAAKLEKSGWKGEVEVVESEGEDHVFHLLKPECDNAIEVMHKFSGFIKGGN
B2: AtCXE5 (Arabidopsis thaliana) (protein)
chain: MESEIASEFLPFCRIYKDGRVERLIGTDTIPASLDPTYDVVSKDVIYSPENNLSVRLFLPHKSTKLTAGNKLPLLIYIHGGAWIIESPFSPLYHNYLTEVVKSANCLAVSVQYRRAPEDPVPAAYEDVWSAIQWIFAHSNGSGPVDWINKHADFGKVFLGGDSAGGNISHHMAMKAGKEKKLDLKIKGIAVVHPAFWGTDPVDEYDVQDKETRSGIAEIWEKIASPNSVNGTDDPLFNVNGSGSDFSGLGCDKVLVAVAGKDVFVRQGLAYAAKLEKCEWEGTVEVVEEEGEDHVFHLQNPKSDKALKFLKKFVEFIIG

Legend:
Assay in all cases: GC-MS of (Z)-3-hexenol formed, Michaelis-Menten fit
Format in all cases: biochemical, Arabidopsis thaliana
Settings in all cases: 50 mM Tris-HCl pH 7.5, 30 °C, 10 min, 0.5 µM enzyme
[1] = substrate: CC/C=C\CCOC(C)=O
Text: (§1) GC-MS of (Z)-3-hexenol formed, Michaelis-Menten fit on AtCXE12

[2] = substrate: CC/C=C\CCOC(=O)CC
Text: as §1

[3] = substrate: CC/C=C\CCOC(=O)CCC
Text: as §1

[4] = substrate: CC/C=C\CCOC(C)=O; remark: listed apart in the source
Text: (§2) GC-MS of (Z)-3-hexenol formed, Michaelis-Menten fit on AtCXE5

[5] = substrate: CC/C=C\CCOC(=O)CC; remark: listed apart in the source
Text: as §2

[6] = substrate: CC/C=C\CCOC(=O)CCC; remark: listed apart in the source
Text: as §2

Protein	Km [1]	kcat [1]	kcat/Km [1]	Km [2]	kcat [2]	kcat/Km [2]	Km [3]	kcat [3]	kcat/Km [3]	Km [4]	kcat [4]	kcat/Km [4]	Km [5]	kcat [5]	kcat/Km [5]	Km [6]	kcat [6]	kcat/Km [6]
B1	5940 ± 840 µM	3.78 s⁻¹	640 M⁻¹ s⁻¹	2260 ± 340 µM	2.25 s⁻¹	990 M⁻¹ s⁻¹	460 ± 50 µM	0.85 s⁻¹	1860 M⁻¹ s⁻¹									
B2										8630 ± 1280 µM	3.17 s⁻¹	380 M⁻¹ s⁻¹	1450 ± 190 µM	0.3 s⁻¹	210 M⁻¹ s⁻¹	240 ± 30 µM	0.16 s⁻¹	650 M⁻¹ s⁻¹
